From patent US20040014939

Test system: T1, synthetic substrate Mcc-Pro-Leu-Gly-Pro-D-Lys(DNP)-OH
T1 sequence: PLGPK

luciferase as a fusion protein with 6×His tag
enzyme activity (fluorescence intensity, excitation 345±10 nm, emission 425±10 nm, 37° C. for 1 h): the enzyme activity was not detected in the water-soluble fraction in the case of a control in which luciferase gene was introduced into the similar expression vector
